Measurements reported in article PMC2864300, “Regulation of NOXO1 Activity through Reversible Interactions with p22^phox and NOXA1” (PLoS ONE, 2010).
Read-outs that look alike come from different tables or passages of the source. Values belong to the molecule of their own block, whether it stands above or below them.

Key:
p67^phox = details: cited from earlier work
Excerpt: The phagocytic oxidase is still the best characterized member of this protein family and consists of a heterodimeric flavocytochrome (containing NOX2 and p22^phox) that makes up the catalytic core of the enzyme plus the cytosolic regulatory subunits p40^phox, p47^phox and p67^phox and the small GTPase Rac, [16]–[18]. Because excessive ROS production is cytotoxic and can induce a number of pathological processes, complicated regulatory mechanisms have evolved that tightly control the activity of the phagocytic oxidase. […] To gain further insight into the molecular basis of complex formation between these two proteins we measured binding of the human and mouse NOXA1-SH3 ... || In the phagocytic oxidase the p47^phox-p67^phox interaction is unusually strong (Kd of 20 nM), [26], due to the presence of two protein interfaces: contacts are made via the conserved PxxPxR motif (at amino acids 363–368), but also via an additional surface composed of residues 369–390 of p47^phox, which fold into a helix-turn-helix (HTH) motif and pack against β-sheets 2, 3 and 4 of SH3B p67^phox. Removal of this additional binding motif reduces the affinity for p67^phox to 20 µM.

murine p22^phoxC = test: ITC, binding to mouse p22phox cytoplasmic domain
Protocol: Complex formation between NOXO1, NOXA1 and p22^phox fragments or peptides were measured by isothermal titration calorimetry using a MicroCal VP-ITC calorimeter (MicroCal Inc., Northampton, USA). All proteins were dialysed against ITC buffer (150 mM NaCl, 1 mM DTT and 50 mM HEPES, pH 7.4) and performed at 18°C. All peptides were dissolved in ITC buffer. Typically, 20–40 µM of protein in the cell was titrated by stepwise injections of a total of 200–300 µM of the ligand. Heats of dilution were determined by titrating protein or peptide into ITC buffer and subtracted from the raw ITC data prior to analysis with the software, Origin version 7.0, assuming a single-site binding model. Data were averaged over three to five experiments.

NOXA1 = details: COS cells; cited from earlier work
SH3 domain of NOXA1 = details: GST pull-downs; cited from earlier work
Excerpt: To gain further insight into the molecular basis of complex formation between these two proteins we measured binding of the human and mouse NOXA1-SH3 ...

B1: p47^phox: cytosolic regulatory subunit of the phagocytic NADPH oxidase (protein, UniProt P14598 1-390, looked up)
Neutrophil cytosol factor 1: MGDTFIRHIALLGFEKRFVPSQHYVYMFLVKWQDLSEKVVYRRFTEIYEFHKTLKEMFPIEAGAINPENRIIPHLPAPKWFDGQRAAENRQGTLTEYCSTLMSLPTKISRCPHLLDFFKVRPDDLKLPTDNQTKKPETYLMPKDGKSTATDITGPIILQTYRAIANYEKTSGSEMALSTGDVVEVVEKSESGWWFCQMKAKRGWIPASFLEPLDSPDETEDPEPNYAGEPYVAIKAYTAVEGDEVSLLEGEAVEVIHKLLDGWWVIRKDDVTGYFPSMYLQKSGQDVSQAQRQIKRGAPPRRSSIRNAHSIHQRSRKRLSQDAYRRNSVRFLQQRRRQARPGPQSPGSPLEEERQTQRSKPQPAVPPRPSADLILNRCSESTKRKLASAV
Kd (p67^phox; additional binding motif (residues 369–390 of p47^phox) removed, ref [25], [26], read-out: affinity for p67^phox after removal of additional binding motif): 20000 nM | Kd (p67^phox; interaction with C-terminal SH3 domain of p67^phox, ref [25]–[27], read-out: affinity for p67^phox): 20 nM

Kd (murine p22^phoxC; ITC, 18°C, 150 mM NaCl, 1 mM DTT, 50 mM HEPES, pH 7.4, mouse p22^phoxC in syringe, NOXO1 construct in cell, averaged over three to five experiments, NB = no binding): 780 ± 60 nM | ΔH (murine p22^phoxC; ITC, 18°C, pH 7.4, mouse p22^phoxC in syringe, NB = no binding): -7.1 ± 0.05 kcal/mol | fold weakening of binding to p22^phox (murine p22^phoxC; mouse SH3AB–E in comparison to the tandem SH3 domains): around 10 -fold
B2: Mouse NOXO1 SH3AB–E: tandem SH3 domains plus the C-terminal portion of NOXO1 (mouse) (protein)
chain: QSIPCVQPFHTLDIRDRPFHTKAQEILDILLRHPSGWWLVENKDQQVAWFPAPYLEEVATCQGQESGLALQGSGRQFCTTQAYEGSRSDELSVPSGARVHVLETSDRGWWLCRYNGRTGLLPAMSLQPEGLGSLLGRPGFPDSAGADKVAEDRTIPPVVPTRPCMSAIQSRCCSITRRALGQEQGTRVPR
modifications: left off: GST, end not stated, cleaved

B3: NOXO1: NOX organizing protein 1 (protein, UniProt Q8NFA2 1-376, looked up)
NADPH oxidase organizer 1: MAGPRYPVSVQGAALVQIKRLQTFAFSVRWSDGSDTFVRRSWDEFRQLKKTLKETFPVEAGLLRRSDRVLPKLLGQASLDAPLLGRVGRTSRGLARLQLLETYSRRLLATAERVARSPTITGFFAPQPLDLEPALPPGSRVILPTPEEQPLSRAAGRLSIHSLEAQSLRCLQPFCTQDTRDRPFQAQAQESLDVLLRHPSGWWLVENEDRQTAWFPAPYLEEAAPGQGREGGPSLGSSGPQFCASRAYESSRADELSVPAGARVRVLETSDRGWWLCRYGDRAGLLPAVLLRPEGLGALLSGTGFRGGDDPAGEARGFPEPSQATAPPPTVPTRPSPGAIQSRCCTVTRRALERRPRRQGRPRGCVDSVPHPTTEQ
co-immunoprecipitation of NOXO1 and NOXA1 (NOXA1): both proteins could be co-immunopricipitated from COS cells | binding to the SH3 domain of NOXA1 (SH3 domain of NOXA1): failed to bind the SH3 domain of NOXA1
